One molecule from patent US20260286408A1, “PROCESS FOR MAKING FLAVANONE DERIVATIVES” (priority 2022, published 2026) can be followed below.

This series is described as follows: Biotransformation of flavanones with whole cells of E. coli BL21 (DE3)-AthF3H. As to conditions: whole cells OD10, 1 g/L substrate, pH 7, 30° C., 2 h, all substrates. The format is biochemical. The protocol:
The gene (GenBank: U33932) encoding the flavanone-3-hydroxylase (F3H) from Arabidopsis thaliana was ordered codon-optimized for E. coli. E. coli BL21 (DE3) was transformed with the resulting construct. For the precultures LB medium containing kanamycin (50 μg/mL) was inoculated with E. coli BL21 (DE3) strains harboring the constructs and incubated at 37° C. and 200 rpm over-night. The preculture was used to inoculate the main culture of 400 mL LB medium containing kanamycin (50 μg/mL), which was incubated at 37° C. until the optical density at 600 nm (OD600) reached approximately 0.8. Expression of AthF3H was induced by 0.1 mM IPTG (isopropyl-D-thiogalactopyranoside) and the cultures were shaken at 20-25° C. for 20 h. The cells were harvested by centrifugation, and then resuspended in 100 mM potassium phosphate buffer (KPi, pH 7) to an OD of 50.
Biotransformations were carried out with whole cells of E. coli BL21 (DE3)-AthF3H at OD10 in a total volume of 1 mL in 100 mM potassium phosphate buffer (KPi, pH 7) containing 10% DMSO, 1 g/L of eriodictyol, hesperetin, homoeriodictyol, pinocembrin, liquiritigenin or 5-deoxyeriodictyol, 10 mM α-ketoglutarate, 10 mM ascorbic acid and 0.25 mM FeSO4 at 30° C. and 1000 rpm for 2 h. […]

B1: AthF3H: flavanone-3-hydroxylase (F3H) from Arabidopsis thaliana (GenBank: U33932), expressed in E. coli BL21 (DE3) (protein, UniProt Q9S818 1-358, looked up)
Naringenin,2-oxoglutarate …: MAPGTLTELAGESKLNSKFVRDEDERPKVAYNVFSDEIPVISLAGIDDVDGKRGEICRQIVEACENWGIFQVVDHGVDTNLVADMTRLARDFFALPPEDKLRFDMSGGKKGGFIVSSHLQGEAVQDWREIVTYFSYPVRNRDYSRWPDKPEGWVKVTEEYSERLMSLACKLLEVLSEAMGLEKESLTNACVDMDQKIVVNYYPKCPQPDLTLGLKRHTDPGTITLLLQDQVGGLQATRDNGKTWITVQPVEGAFVVNLGDHGHFLSNGRFKNADHQAVVNSNSSRLSIATFQNPAPDATVYPLKVREGEKAILEEPITFAEMYKRKMGRDLELARLKKLAKEERDHKEVDKPVDQIFA
For B1, the “conversion of flavanone substrates by F3H” value was “full conversion of the available (S)-enantiomer”.
